According to patent US10344077:
Residue numbers refer to the chain shown, from its start.

T1: Centromere B (UniProt P07199)
T1 sequence (looked up): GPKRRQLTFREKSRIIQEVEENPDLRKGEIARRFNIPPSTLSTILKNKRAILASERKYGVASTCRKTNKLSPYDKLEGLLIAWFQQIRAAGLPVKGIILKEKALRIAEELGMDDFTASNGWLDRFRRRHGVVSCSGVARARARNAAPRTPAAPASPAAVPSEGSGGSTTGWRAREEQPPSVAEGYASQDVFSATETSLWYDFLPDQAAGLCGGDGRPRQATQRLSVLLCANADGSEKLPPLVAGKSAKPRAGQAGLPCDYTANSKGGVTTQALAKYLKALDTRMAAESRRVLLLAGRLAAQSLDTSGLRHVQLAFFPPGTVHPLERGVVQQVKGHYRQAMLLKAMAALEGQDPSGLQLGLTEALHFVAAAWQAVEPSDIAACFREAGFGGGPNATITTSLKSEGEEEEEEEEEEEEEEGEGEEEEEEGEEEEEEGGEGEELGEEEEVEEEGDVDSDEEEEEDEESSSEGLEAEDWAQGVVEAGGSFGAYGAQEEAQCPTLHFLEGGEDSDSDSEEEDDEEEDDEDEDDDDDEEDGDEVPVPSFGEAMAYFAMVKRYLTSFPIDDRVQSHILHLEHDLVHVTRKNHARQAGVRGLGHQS

T2: Jo-1 (UniProt P12081)
T2 sequence (looked up): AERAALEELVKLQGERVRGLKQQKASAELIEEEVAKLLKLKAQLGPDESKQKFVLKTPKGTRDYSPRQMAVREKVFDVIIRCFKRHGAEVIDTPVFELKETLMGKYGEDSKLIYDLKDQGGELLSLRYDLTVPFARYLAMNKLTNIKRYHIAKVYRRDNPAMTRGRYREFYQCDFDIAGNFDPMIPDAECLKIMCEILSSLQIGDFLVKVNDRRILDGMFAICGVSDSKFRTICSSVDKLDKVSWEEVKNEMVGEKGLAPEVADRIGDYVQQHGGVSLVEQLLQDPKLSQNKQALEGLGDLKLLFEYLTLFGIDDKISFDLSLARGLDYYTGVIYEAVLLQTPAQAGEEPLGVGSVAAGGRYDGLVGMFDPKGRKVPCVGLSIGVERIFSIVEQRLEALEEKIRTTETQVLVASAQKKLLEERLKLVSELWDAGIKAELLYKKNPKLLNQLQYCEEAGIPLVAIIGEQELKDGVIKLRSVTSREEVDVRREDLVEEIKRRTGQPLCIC

B1: CH235_4A (antibody, from a related filing, V domains shown)
VH: QVQLVQSGAEVKKPGASVTVSCQASGYTFTNYYVHWVRQAPGQGLQLMGWIDPSWGRTNYAQNFQGRITMTRDTSTSTVYMEMRSLRSEDTAVYYCARNVATEGSLLHYDYWGQGTLVTVSA
VL: EIVLTQSPATLSVSPGERATLSCRASQSVRSNLAWYQQRPGQAPRLLIYGTSTRATGVPARFSGRGSGTEFTLAISSMQSEDFAVYLCLQYNNWWTFGQGTKVEIK
B2: CH239_4A/293i (antibody, from a related filing, V domains shown)
VH: QVQLVQSGAEVRKPGASVTVSCKASGYTFNNFYVHWVRQAPGQGLECMGWIDPSVGRINYAQKFQGRVTMTRDRSTSTVYMGLSSLRSEDTAIYYCVRDVGTEGSLLHFDHWGQGTLVIVSA
VL: EIVLTQSPATLSVSPGERATLSCRATQSVRSNVAWYQQKPGQAPRLLIYSASTRATGIPARFSGSGSGTEFTLTIASMQSEDFAVYYCLQYDDWWTFGQGTKVEIK
B3: CH240_4A/293i (antibody, from a related filing, V domains shown)
VH: B2 VH with A9T, V20I, N59S, A61G, I93M
VL: B2 VL with V33L, P40R, A76S, M78V, D92N, D93N
B4: CH241 (antibody, from a related filing, V domains shown)
VH: QVQLVQSGAAVKKPGASVRVSCKASGYTFTSSHIHWVRQAPGQGPEWMGMIDPSVGRPTTAGKFQGRVTMTRDRYTSTAYMDLSSLRSEDTAVYYCARSVETTGSLLYFDYWGQGTLITVSS
VL: EIVLTQSPATLSVSPGERATLSCRASQSVRSNIAWYQQKPGQAPRLLIHGASTRATGIPGRFSGSGSGPEFTLAISSVQSEDFAVYYCQQYNDWWTFGQGTKVEIK

These binders were tested against Sm (Smith antigen) (assay: AtheNA, Ab 6.25 ug/ml).
For B1, the Athena reading (relative luminescence units) was 5.
B2 gave an Athena reading (relative luminescence units) of 285.
For B3, the Athena reading (relative luminescence units) was 9.
In the case of B4, the Athena reading (relative luminescence units) is reported as 4.

These binders were tested against T1, Centromere B (assay: AtheNA, Ab 6.25 ug/ml).
B1 gave an Athena reading (relative luminescence units) of 3.
For B2, the Athena reading (relative luminescence units) was 260.
Work on B3 yielded an Athena reading (relative luminescence units) of 8.
B4 gave an Athena reading (relative luminescence units) of 6.

The binders below were run against SSA (assay: AtheNA, Ab 6.25 ug/ml).
B1 was tested, and the Athena reading (relative luminescence units) was 12.
With B2 the Athena reading (relative luminescence units) was 178.
Binder B3 has an Athena reading (relative luminescence units) of 12.
B4 was tested, and the Athena reading (relative luminescence units) was 15.

The binders below were run against T2, Jo-1 (assay: AtheNA, Ab 6.25 ug/ml).
For B1, the Athena reading (relative luminescence units) was 2.
For B2, the Athena reading (relative luminescence units) was 8.
With B3 the Athena reading (relative luminescence units) was 5.
B4 was tested, and the Athena reading (relative luminescence units) was 2.

Each binder was assayed against RNP (ribonucleoprotein) (assay: AtheNA, Ab 6.25 ug/ml).
With B1 the Athena reading (relative luminescence units) was 3.
With B2 the Athena reading (relative luminescence units) was 78.
Work on B3 yielded an Athena reading (relative luminescence units) of 6.
B4 showed an Athena reading (relative luminescence units) of 3.

What follows are binders tested against Histones (assay: AtheNA, Ab 6.25 ug/ml).
In the case of B1, the Athena reading (relative luminescence units) is reported as 5.
In the case of B2, the Athena reading (relative luminescence units) is reported as 266.
Binder B3 has an Athena reading (relative luminescence units) of 9.
In the case of B4, the Athena reading (relative luminescence units) is reported as 9.

Each binder was assayed against Scl-70 (UniProt P11387) (assay: AtheNA, Ab 6.25 ug/ml).
Chain of Scl-70 (P11387 2-765 limits assumed): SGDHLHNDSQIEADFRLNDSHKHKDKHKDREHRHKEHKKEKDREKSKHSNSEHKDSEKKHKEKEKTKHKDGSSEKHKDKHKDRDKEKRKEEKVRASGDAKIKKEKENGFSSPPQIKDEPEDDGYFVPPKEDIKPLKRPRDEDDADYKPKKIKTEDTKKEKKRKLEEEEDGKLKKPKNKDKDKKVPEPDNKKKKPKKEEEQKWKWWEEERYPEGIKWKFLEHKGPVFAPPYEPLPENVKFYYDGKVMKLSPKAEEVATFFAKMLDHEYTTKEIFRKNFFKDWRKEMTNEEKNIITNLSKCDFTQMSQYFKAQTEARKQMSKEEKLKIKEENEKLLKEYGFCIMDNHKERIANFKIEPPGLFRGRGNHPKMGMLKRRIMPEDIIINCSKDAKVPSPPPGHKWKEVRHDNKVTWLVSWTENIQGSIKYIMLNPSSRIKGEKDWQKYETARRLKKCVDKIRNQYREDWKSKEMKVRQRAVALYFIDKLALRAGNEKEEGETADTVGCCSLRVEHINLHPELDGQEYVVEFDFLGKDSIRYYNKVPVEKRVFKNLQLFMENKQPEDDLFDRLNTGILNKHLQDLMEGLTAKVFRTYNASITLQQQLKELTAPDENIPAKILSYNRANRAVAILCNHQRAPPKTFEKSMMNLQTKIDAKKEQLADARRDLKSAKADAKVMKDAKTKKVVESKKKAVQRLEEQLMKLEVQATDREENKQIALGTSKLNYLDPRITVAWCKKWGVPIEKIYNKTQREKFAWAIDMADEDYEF
B1 was tested, and the Athena reading (relative luminescence units) was 2.
With B2 the Athena reading (relative luminescence units) was 49.
Work on B3 yielded an Athena reading (relative luminescence units) of 3.
Work on B4 yielded an Athena reading (relative luminescence units) of 1.

Each binder was assayed on T3, SSB (UniProt P05455) (assay: AtheNA, Ab 12.5 ug/ml).
T3 sequence (looked up): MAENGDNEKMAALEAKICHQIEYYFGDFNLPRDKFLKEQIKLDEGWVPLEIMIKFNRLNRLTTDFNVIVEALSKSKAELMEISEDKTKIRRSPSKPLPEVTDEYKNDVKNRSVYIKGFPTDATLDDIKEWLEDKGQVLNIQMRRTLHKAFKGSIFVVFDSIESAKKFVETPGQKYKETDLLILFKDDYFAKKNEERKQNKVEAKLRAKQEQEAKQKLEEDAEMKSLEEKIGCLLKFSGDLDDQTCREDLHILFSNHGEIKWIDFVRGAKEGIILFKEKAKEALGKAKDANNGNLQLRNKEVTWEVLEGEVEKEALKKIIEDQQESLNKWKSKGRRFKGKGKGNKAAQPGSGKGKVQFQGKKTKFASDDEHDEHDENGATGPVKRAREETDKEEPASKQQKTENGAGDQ
For B1, the Athena reading (relative luminescence units) was 5.
B2 gave an Athena reading (relative luminescence units) of 6.
Work on B3 yielded an Athena reading (relative luminescence units) of 5.
In the case of B4, the Athena reading (relative luminescence units) is reported as 8.

Each binder was assayed against Sm (Smith antigen) (assay: AtheNA, Ab 25 ug/ml).
For B1, the Athena reading (relative luminescence units) was 7.
For B2, the Athena reading (relative luminescence units) was 237.
B3 gave an Athena reading (relative luminescence units) of 22.
For B4, the Athena reading (relative luminescence units) was 11.

The binders below were run against T1, Centromere B (assay: AtheNA, Ab 25 ug/ml).
B1 gave an Athena reading (relative luminescence units) of 6.
B2 was tested, and the Athena reading (relative luminescence units) was 199.
B3 was tested, and the Athena reading (relative luminescence units) was 24.
With B4 the Athena reading (relative luminescence units) was 14.

These binders were tested against SSA (assay: AtheNA, Ab 25 ug/ml).
B1 was tested, and the Athena reading (relative luminescence units) was 13.
B2 was tested, and the Athena reading (relative luminescence units) was 306.
For B3, the Athena reading (relative luminescence units) was 16.
B4 gave an Athena reading (relative luminescence units) of 15.

Each binder was assayed against T2, Jo-1 (assay: AtheNA, Ab 25 ug/ml).
With B1 the Athena reading (relative luminescence units) was 4.
Work on B2 yielded an Athena reading (relative luminescence units) of 11.
In the case of B3, the Athena reading (relative luminescence units) is reported as 11.
For B4, the Athena reading (relative luminescence units) was 5.

The binders below were run against RNP (ribonucleoprotein) (assay: AtheNA, Ab 25 ug/ml).
Work on B1 yielded an Athena reading (relative luminescence units) of 5.
In the case of B2, the Athena reading (relative luminescence units) is reported as 96.
With B3 the Athena reading (relative luminescence units) was 11.
B4 was tested, and the Athena reading (relative luminescence units) was 6.

These binders were tested against Histones (assay: AtheNA, Ab 25 ug/ml).
B1 gave an Athena reading (relative luminescence units) of 7.
B2 was tested, and the Athena reading (relative luminescence units) was 253.
Binder B3 has an Athena reading (relative luminescence units) of 27.
Work on B4 yielded an Athena reading (relative luminescence units) of 20.

The binders below were run against Scl-70 (UniProt P11387) (assay: AtheNA, Ab 25 ug/ml).
B1 gave an Athena reading (relative luminescence units) of 4.
In the case of B3, the Athena reading (relative luminescence units) is reported as 6.
B4 gave an Athena reading (relative luminescence units) of 4.

These binders were tested on T3,  (assay: AtheNA, Ab 6.25 ug/ml).
Binder B1 has an Athena reading (relative luminescence units) of 6.
B2 was tested, and the Athena reading (relative luminescence units) was 5.
In the case of B3, the Athena reading (relative luminescence units) is reported as 5.
Work on B4 yielded an Athena reading (relative luminescence units) of 4.

These binders were tested against Sm (Smith antigen) (assay: AtheNA, Ab 12.5 ug/ml).
Binder B1 has an Athena reading (relative luminescence units) of 8.
B2 gave an Athena reading (relative luminescence units) of 277.
Binder B3 has an Athena reading (relative luminescence units) of 13.
In the case of B4, the Athena reading (relative luminescence units) is reported as 7.

These binders were tested against T1, Centromere B (assay: AtheNA, Ab 12.5 ug/ml).
In the case of B1, the Athena reading (relative luminescence units) is reported as 5.
Binder B2 has an Athena reading (relative luminescence units) of 216.
B3 showed an Athena reading (relative luminescence units) of 15.
With B4 the Athena reading (relative luminescence units) was 8.

The binders below were run against SSA (assay: AtheNA, Ab 12.5 ug/ml).
For B1, the Athena reading (relative luminescence units) was 13.
B2 was tested, and the Athena reading (relative luminescence units) was 277.
Binder B3 has an Athena reading (relative luminescence units) of 14.
With B4 the Athena reading (relative luminescence units) was 14.

What follows are binders tested against T2, Jo-1 (assay: AtheNA, Ab 12.5 ug/ml).
For B1, the Athena reading (relative luminescence units) was 3.
In the case of B2, the Athena reading (relative luminescence units) is reported as 8.
In the case of B3, the Athena reading (relative luminescence units) is reported as 7.
B4 showed an Athena reading (relative luminescence units) of 6.

These binders were tested against RNP (ribonucleoprotein) (assay: AtheNA, Ab 12.5 ug/ml).
With B1 the Athena reading (relative luminescence units) was 6.
B2 was tested, and the Athena reading (relative luminescence units) was 85.
With B3 the Athena reading (relative luminescence units) was 8.
Binder B4 has an Athena reading (relative luminescence units) of 5.

Each binder was assayed against Histones (assay: AtheNA, Ab 12.5 ug/ml).
B1 gave an Athena reading (relative luminescence units) of 5.
Work on B2 yielded an Athena reading (relative luminescence units) of 263.
In the case of B3, the Athena reading (relative luminescence units) is reported as 18.
For B4, the Athena reading (relative luminescence units) was 13.

What follows are binders tested against Scl-70 (UniProt P11387) (assay: AtheNA, Ab 12.5 ug/ml).
B1 gave an Athena reading (relative luminescence units) of 2.
Binder B2 has an Athena reading (relative luminescence units) of 48.
B3 was tested, and the Athena reading (relative luminescence units) was 4.
B4 was tested, and the Athena reading (relative luminescence units) was 3.

These binders were tested on T3,  (assay: AtheNA, Ab 25 ug/ml).
In the case of B1, the Athena reading (relative luminescence units) is reported as 5.
Binder B2 has an Athena reading (relative luminescence units) of 8.
Binder B3 has an Athena reading (relative luminescence units) of 11.
For B4, the Athena reading (relative luminescence units) was 6.

Each binder was assayed against Sm (Smith antigen) (assay: AtheNA, Ab 50 ug/ml).
With B2 the Athena reading (relative luminescence units) was 250.

These binders were tested against T1, Centromere B (assay: AtheNA, Ab 50 ug/ml).
B2 gave an Athena reading (relative luminescence units) of 173.

Each binder was assayed against SSA (assay: AtheNA, Ab 50 ug/ml).
B2 showed an Athena reading (relative luminescence units) of 289.

Each binder was assayed against Histones (assay: AtheNA, Ab 50 ug/ml).
In the case of B2, the Athena reading (relative luminescence units) is reported as 228.
